Measured values from US20200087416A1.
Blank lines part the entries; values can stand above or below the substance they belong to.

Key:
[1] = biological target: cynomolgus PCSK-9 (cynomolgus); experiment: BLI (ForteBio), IgG on AHQ sensor, 100 nM antigen
[2] = biological target: human PCSK9 (PCSK9 antigen, SEQ ID NO. 53) (human); experiment: MSD-SET, Fab with biotin-PCSK9 in solution, IgG on plate, pH 6.0
[3] = biological target: cynomolgus PCSK-9 (cynomolgus); experiment: MSD-SET, Fab with biotin-PCSK9 in solution, IgG on plate, pH 7.4
[4] = biological target: human PCSK9 (PCSK9 antigen, SEQ ID NO. 53) (human); experiment: as above
murine PCSK-9 (murine) = murine PCSK-9 (murine) (UniProt Q80W65); experiment: as above
[5] = biological target: human PCSK9 (PCSK9 antigen, SEQ ID NO. 53) (human); experiment: cell-based or functional assay
[6] = biological target: human PCSK9 (PCSK9 antigen, SEQ ID NO. 53) (human); experiment: flow cytometry, PCSK9 left on CHO-LDLR cells (anti-His-FITC) after premix with 1 nM control IgG
[7] = biological target: human PCSK9 (PCSK9 antigen, SEQ ID NO. 53) (human); experiment: flow cytometry, PCSK9 left on CHO-LDLR cells (anti-His-FITC) after premix with 10 nM control IgG
[8] = biological target: human PCSK9 (PCSK9 antigen, SEQ ID NO. 53) (human); experiment: flow cytometry, PCSK9 left on CHO-LDLR cells (anti-His-FITC) after premix with 0.1 nM control IgG
[9] = biological target: human PCSK9 (PCSK9 antigen, SEQ ID NO. 53) (human); experiment: flow cytometry, PCSK9 left on CHO-LDLR cells (anti-His-FITC) after premix with 100 nM control IgG
[10] = biological target: human PCSK9 (PCSK9 antigen, SEQ ID NO. 53) (human); experiment: flow cytometry, PCSK9 left on CHO-LDLR cells (anti-His-FITC) after premix with 1000 nM control IgG

Substance: Alirocumab (antibody)
Kd [1]: 0.383 nM

Substance: Bococizumab (antibody)
Kd [1]: 0.476 nM

Substance: Evolocumab (antibody)
Kd [1]: 1.3 nM

Substance: Evolocumab Fab
Kd [3]: 0.0082 nM | Kd [4]: 0.016 nM

Next, values leading:

Kd [2]: 0.051 nM | Kd [3]: 0.082 nM | Kd [4]: 0.072 nM | Kd (murine PCSK-9 (murine)): 0.3 nM
Substance: Alirocumab Fab

BODIPY-LDL uptake by HepG2 cells, fluorescence, 4.2 nM, replicate 1 [5]: 0.358 | BODIPY-LDL uptake by HepG2 cells, fluorescence, 4.2 nM, replicate 2 [5]: 0.325 | BODIPY-LDL uptake by HepG2 cells, fluorescence, 16.8 nM, replicate 1 [5]: 0.297 | BODIPY-LDL uptake by HepG2 cells, fluorescence, 16.8 nM, replicate 2 [5]: 0.309 | BODIPY-LDL uptake by HepG2 cells, fluorescence, 66.7 nM, replicate 1 [5]: 0.329 | BODIPY-LDL uptake by HepG2 cells, fluorescence, 66.7 nM, replicate 2 [5]: 0.288 | Fluorescence Signal Value [6]: 6730 | Fluorescence Signal Value [7]: 6960 | Fluorescence Signal Value [8]: 7000 | Fluorescence Signal Value [9]: 7520 | Fluorescence Signal Value [10]: 8920
Substance: IgG (negative control) (antibody)
